From patent CN111217911A (DONGGUAN PENGZHI BIO TECH CO LTD, dated 2020)

Molecular target: T1, 人胃蛋白酶原II HPGII (fitzgerald, 30R-AP039) (human, UniProt P20142 17-388)
T1 construct: Bought antigen; also called PGⅡ; PGC
T1 sequence (looked up): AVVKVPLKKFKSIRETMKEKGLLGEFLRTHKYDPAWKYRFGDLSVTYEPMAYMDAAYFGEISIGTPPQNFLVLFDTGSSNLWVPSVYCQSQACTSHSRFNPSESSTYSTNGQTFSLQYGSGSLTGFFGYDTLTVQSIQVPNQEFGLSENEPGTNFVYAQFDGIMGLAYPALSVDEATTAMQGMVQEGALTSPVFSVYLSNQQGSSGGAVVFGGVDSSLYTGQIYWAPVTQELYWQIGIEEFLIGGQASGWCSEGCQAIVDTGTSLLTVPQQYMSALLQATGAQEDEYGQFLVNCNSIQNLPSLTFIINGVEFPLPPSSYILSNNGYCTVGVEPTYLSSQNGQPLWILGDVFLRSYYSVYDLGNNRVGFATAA
Experiment: BLI, AMC sensor, antibody immobilised, HPGII in solution

B1: Anti-HPG II 11C2 重组抗体 (WT) (antibody, V domains shown)
VH: QIQLVQSGPELKKPGETVKISCKASGYSFTQHGMNWVKQAPGKGLKWMGWINSFTAQPTFADDFRGRFAFSLETSASTAYLQINNLKNEDMATYFCARRGENYIYYYAMDYWGQGTSVTVSS
VL: DVVVTQTPLSLPVSFGDQVSISCRSNQSIAQSYGNTYLSWYLHKPGQSPQLLIYGLSQRFSGVPDRFSGSGSGTDFTLKISTIKPEDLGMYYCLNGSHQPWTFGGGTKLEIK
- Kd: 5.15 nM
- koff: 0.00181 s⁻¹
- kon: 351000 M⁻¹ s⁻¹
